Test results as given in paper PMC11547827 (2024).
Bridges are numbered along the chain shown (N, C = ends). Where no end group is shown, it is not given here.

Target: T1, TNFR1 (Homo sapiens, UniProt P19438)
T1 chain: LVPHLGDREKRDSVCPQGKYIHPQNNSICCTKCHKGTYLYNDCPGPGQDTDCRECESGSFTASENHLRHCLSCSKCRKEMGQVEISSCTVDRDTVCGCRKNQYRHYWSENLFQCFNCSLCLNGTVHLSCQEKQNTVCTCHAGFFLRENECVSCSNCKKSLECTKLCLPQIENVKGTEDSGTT
Experiment: ELISA

Binder: YCWSQYLCY (disulfide 2-8 (inferred)) [WP9QY]
- Kd: 1150 nM

Binder: CTISRIAVSYQTKVNRLSC (disulfide 1-19) [L16R (α_CC8 L16R cyclic peptide)]
- Kd: 177 nM
